Target: rLdACT (Leishmania actin) (Leishmania donovani, UniProt Q86M27 1-376)
Assay: EMSA

B1: 30 bp DNA probe (dsDNA)
DNA 1: GCGGCCGCATGGCTGACAACGAGCAGAGCT
DNA 2: AGCTCTGCTCGTTGTCAGCCATGCGGCCGC
binding result: binds

Reference: paper PMC2879525
